Measured values reported in the DeepSol protein solubility set.

Assay: soluble on expression in E. coli; label from the status in PepcDB or PDB records

| Sequence | soluble on expression in E. coli |
| --- | --- |
| MGSDKIHHHHHHMAKEKKSRDTQKKIFVLDTSVIIYDHNAVKNFEEHDLAIPITVLEELDNFKKGNDIKNFEAREFTRFLDELAADSASLQDWIQLEGRDKGKLKVIMNTHGTKETDAEKIFDDRKNDHKILNAAISVQAENPDKKVILVSKDINLRLKAKSLNIPSEDYNTGKVKDIDLLYTGHTTIENVAPEKINELYEKGYCDIDAIPEQDVSKNHYYILKSVKSSALAYYNPVDKRLEHVGKTPAYGIKPRNAEQAFAIHAVLDPHIKLVSIQGVAGTGKTLIALAATLEQRKDFKQIFLARPIVPLSNKDIGYLPGDIKSKLNPYMEPLFDNLKFIQNQFNETDQDYQRITDMVNKEKLVITPLAYIRGRSLSNIVFIVDEAQNLTPHEVKTIISRAGENCKIIFTGDIFQIDTPYLDSESNGLSYLIDRLKNQDLYAHITLEKGERSELANLANELL | not soluble |
| MIAHSVDDPFYYLHNFRQVVLWVEQRYQDLLDDQELAFIRAFSQLQAPAQALMVRMVMRKGELFRSDRLDYAEIGDTALALQPLLALGWVREPEQLDLEQLFALLRKEELARCFARQLNRPRAAKHELLAQLQPLALAARSLVEWFPDSDVRILQWCLQPLCDRIRLLFFGNLYQDWSDFVLADLGLLRYEQVPFSPDSRALQQRDDVDLAMALHHCAERLEQGGDPLPILATLQGLHSSNPWLARRHARLQFAVGQQCERLGEWDLATAVYAQCNHPQARIRQVRVLERSEQWHQAHARALQLAAAPANALEEQALQRMLPRLARKLGGPPQRRQRTTPLELIELELPRGDAALGVEEAVRQHLMQEGGQAHYVENTLFNSLFGLLCWEAIFAPVPGAFFNPFQAAPQDLHDSDFQQRRSALFERCLGRLDEGSHRQAILDCYVAKQGLQSPFVSWSMLSEELLEQALACLPAAALKQCFLRLLQDIRSNRAGMPDLIQFWPEQGRYRMVEVKGPGDRLQDNQLRWLAFCRQHGLPVAVCHVRWSET | not soluble |
| GSHMLEMRIGHGFDVHAFGGEGPIIIGGVRIPYEKGLLAHSDGDVALHALTDALLGAAALGDIGKLFPDTDPAFKGADSRELLREAWRRIQAKGYTLGNVDVTIIAQAPKMLPHIPQMRVFIAEDLGCHMDDVNVKATTTEKLGFTGRGEGIACEAVALLIKATK | soluble |
| MARPIFSQEIDPYSQEVPKDVAISPSSKFDIYVEAPGEAPFEEADSPAMEYDRELAHHYSHKQLDFLEACSEKPSSKCGNEVFKNMLDETVPITDECCRDILKIGKDCHLGLVKLIFATYEYKNKASKGIPKSKQTWNECVFRVGSKIGAPVSFEQ | soluble |
| MIMAANEKEMRIKIIKDGPYRVTGGVPLLEQVIVTDDDGHTRDLIDIKEYPRREAYILCRCGSSENKPFCDGAHRKVGFDGSETASRTPYLEKAETFEGPDLKLTDVYELCDHSRFCQRSGGIRDLIQKSDDPEARQTAIEEAMICPSGRLVLWDKKTGKPFEKEFDPSIILVHDKQKGCEGPLWVRGGVPIESADGSMYEPRNRVTLCRCGKSENKPYCDGSHWMNSQQKLEFRKKWGLELEHHHHHH | not soluble |
| LKISTKGRYGLEAIVDLAIHSSEGRVSLKSIAERCGMSEAYILQIFLILRRAGIVESIRGAQGGYVLARDPSQITVGEILTVLEGPLAPVPCIAEKTKRSKSSCERYENCTARSFWEKIMNTLNDVANSITVEDLVKCYNSTVSQNTELEYYI | soluble |
| MSNQLSPKPPVNPIVMGKIGSAYGIRGWLRVFSSTEDADSIFDYQPWFIQSKSGWQLVEIEGWKYHNQDLIIKVKGADDRDAANLLTNCEIVVDSSQLPDLGVGDYYWKDLIGCQVVTVTGYELGKIIDMMETGSNDVMVIKANLKDAFGVKERLVPFLTEQVVKRVDLSAQTIEVDWDPGFLEHHHHHH | soluble |
| MIVIKTYQEENASALWDVFFNTVRKVNRKDYSNEQVTAWAPESFDTDVWKNKMQSLNPFIAEIDGVIVGYSDLQDDGLIDHFFCHYQHQGKGVGSALMTHILELAKERKLPRVYSHVSITAKPFYERFGFTVVKPQCIDVRGEQLINYVMERQ | not soluble |
| MMGDSVIYYVEQADEPVNRADERARKTFKYFWRELFWERRRIISALDFAMVKVPFFQDGEDGEICEHMWIDDIYFDGLYIYGVLNNEPGELTNVEQGESVCVPVDDISDWMFVCNGIPYGGFTIQAMRGQMTEEERTEHDAAWGIDFGDPGQILLVYEEKEHPENLEE | not soluble |
| MDYTASYYTDEELAKLFKAAKGDPLELPIVLAAYYGLRRSEIIGLRWDAIDFNPDDPKITIQFTVTEVNFGDGQGNVIIEKEGTKSKASKRTLPLVKPIADLLLQKKKDIENNRRLCGSCYNDKYLDFVHVNEIGERMKPNYISQHFALLLEKHGLKKIRFHDLRHSCASLLYANGVSLKQIQEWLGHSDISTTANIYTHLDYNSKIATANAILPVLFDQLEHHHHHH | not soluble |
| MSDADSQKQIKLTSSDDKTFTVSRKVISQSKTITDIIQNLGIEESGSTSEDTIPLQKVTSTILEKIITWCEHHADDEPKKVDENKKTVDISEWDAEFMKVDQGTLFEIILAANYLDIRGLLDVTTQNVANMMKGKTPSQIRTLFNIENDFSEEEREAMKKENAWCED | not soluble |
| MRGSHHHHHHGSMQILLANPRGFCAGVDRAISIVENALAIYGAPIYVRHEVVHNRYVVDSLRERGAIFIEQISEVPDGAILIFSAHGVSQAVRNEAKSRDLTVFDATCPLVTKVHMEVARASRRGEESILIGHAGHPEVEGTMGQYSNPEGGMYLVESPDDVWKLTVKNEEKLSFMTQTTLSVDDTSDVIDALRKRFPKIVGPRKDDICYATTNRQEAVRALAEQAEVVLVVGSKNSSNSNRLAELAQRMGKRAFLIDDAKDIQEEWVKEVKCVGVTAGASAPDILVQNVVARLQQLGGGEAIPLEGREENIVFEVPKELRVDIREVD | soluble |
| MKISLSTSLFSIEQKVEYFNLNYQSLSDFSVVAKLNYTFTWYGNDFSIGFAPKKGEKLYFDLFFTFKASPNHPFAAENFKPDSEAIDFYVSFSWRLEGKDEVSKKLFELSVFGRARAFQIDDYKINLFSYLVYVIR | soluble |
| QNPSIYCAGHGIYWVAYDMGTALSTGPVKVEAETSGDIDGRIYGIVLAAVYEDKEGQDTRYWVEEGNINLHDKGRSEEASSTHDEAYADFSGKVDVDRYKTANLAAVYLCGSPGLGDSLYFNDEQLSDGENSNDIANSKSYFDLKFFDVLDFLAEDDNELRFQRDDEDYLHPVFAALSLGTEEEGSSDLIVSGVTLPVLYAGQENIIKANIKNIGRDSAYGFQAALYADNEIVSTASVSSLSSGKSKTIDFNWKPGRSGEHVLKVSVDYTNRKKELCEINNWNIPFLANIIDLTPPEIEIDSPLDGSSVSSGYLKVSGTVEDTSRNTTVDVNGQKALLADKRWSADIPVAPGPNKIVVSAVDGTNNTGKEFILVTGISSGSGNNESFVSGGEREHVNRKVNAEPVSSTIPVYRSDI | not soluble |
| MALAEADDGAVVFGEEQEALVLKSWAVMKKDAANLGLRFFLKVFEIAPSAKQMFSFLRDSDVPLEKNPKLKTHAMSVFVMTCEAAAQLRKAGKVTVRETTLKRLGATHLRYGVADGHFEVTGFALLETIKEALPADMWSLEMKKAWAEAYSQLVAAIKREMKPDA | soluble |
| MQLQKLVNMFGGDLTRRYGQKVHKLTLHGGFSCPNRDGTIGRGGCTFCNVASFADEAQQHRSIAEQLAHQANLVNRAKRYLAYFQAYTSTFAEVQVLRSMYQQAVSQANIVGLCVGTRPDCVPDAVLDLLCEYKDQGYEVWLELGLQTAHDKTLHRINRGHDFACYQRTTQLARQRGLKVCSHLIVGLPGEGQAECLQTLERVVETGVDGIKLHPLHIVKGSIMAKAWEAGRLNGIELEDYTLTAGEMIRHTPPEVIYHRISASARRPTLLAPLWCENRWTGMVELDRYLNEHGVQGSALGRPWLPPTE | soluble |
| GPGSMYPGAVGCPWRRLDACVETSYSWALNVMSTNTSKAAVRQSKLTWDEGELTSARLKNDRNGKKARISASGSFRIRAMILACAPSSLAATPADNLPETASTLSFCEMLFNAGVAPLKTPAISSFEACTDVRVCVEAFKTGMPLFSSADEGASGNFFRYPPAAITTACSAETKLIDQSCFTRTTPFRHMGNAA | not soluble |
| MDSALFKTIALIGKHKNPDIVIPLLSLAEYLTDRGISVVLDSLTAAHISNSRYPILTLEEIGKQADLAIVLGGDGTMLNIARALVPFSVPLIGINQGRLGFLTDLTADTMHETLNDMLAGQFVVENRMLLTVEVTRNGESVFKELAFNDVVLHRGISSGMIELEVHINGEYVYSLRSDGLIIATPTGSTAYALSSGGPILHPGLNLMTLVPICPHTLSNRPIVIGADATIEIKVHFTTEIKIYTDSHSWFDLSEHDRVFIQRCPETIKLLHPVHHSYYRMLREKLGWSGILQKNSRLEHHHHHH | not soluble |
| MGSDKIHHHHHHDYEAVNTNPYGVSDGELGPLKYGARFMNMQQRVIPIGSPSLTTGPGNDLQNTDLISSGNYIGYFGNNNNWGFNNEANWNFTDSRMNYAYQNFYSQIFLPWNEIYEIAKDSDSPSEQAILEIANIVRNIAWLRATDVFGPIAYNSAGDGSIAPKFDSQEVVYRSMLADLSKSVELLNTISYSVMAQYDLIYNGNVQNWVKLANSLMLRIAVRVHFIDETLAKEYITKALDPKNGGVIEDISSEAKIKSSDKMPLLNSMLASVNEYNETRMGATIWGYLDGYKDPRLSAYFTEGTYGSGSWAQTGYFPVAPTNSKSKSETSYSAKFASRPKVDSNSPLYWFRASETYFLKAEAALYNLIGGDPKTFYEQGINISFQEQGVSGVATYLSGTGKPTGLTGSNYKYGTYNHDLSIGNTSPKWDDYTGNLSKQEEQLQKIITQKYLALYPNAVEAWTEYRRTGFPYLMKPMDEAAPGRIGASIEDCRVPERFRFAPTAYNSNPNMAEIPTLLGGGDIGATKLWWVRSNRPKQPNQ | not soluble |
| MGHHHHHHSHMNFAGKHVGFGLTGSHCTYHEVLPQMERLVELGAKVTPFVTHTVQTTDTKFGESSEWINKIKQITEEPIVDSMVKAEPFGPKTPLDCMVIAPMTGNSTSKFANAMTDSPVLMGAKATLRNGKPVVVGISTNDALGLNGINIMRLMATKNIYFIPFGQDNPQVKPNSLVARMEALPETIEAALRGQQYQPVLIEKFRD | soluble |
| MTQHTRNFSFKVLTINTHKGFTAFNKRFILPELRDAVRTVGADIVCLQEVMGAHEVHPLHIENWPDTTHYEFLADTMWSDFAYGRNAVYPEGHHGNAVLSRYPIEHYENRDVSVGGSEKRGVLYCRITPPMLNRPIHVMCVHLGLRESHRQAQLTMLAGWVNALPESEPVLVAGDFNDWRQKAGPPLNAAGLEEIFTRAHGRPARTFPVSMPLLRLDRIYVKNANASSPTALPLRNWRHLSDHAPLSAEIHL | not soluble |
| MGSDKIHHHHHHMKKTYVLDTNVLLHDPMALFRFEDNDLVIPITVIEEIDRFKKDLNERGRNARQISRLLDGFRSKGHLIEGITLDHGGKLRVVMLEKTFLEQLPSGLIANANDNAILAVALALQQQNGQPTILVTKDTNLRIKADATGLCAEDYESDKIDFSELYSGTAEVYLAPDQLQVFRREGGLDLSGEFFPNQALTLVDETNLSHTLLGRYRASDRRVVPLIQPPKMGISRIHARNREQQFALDLLLDDNIQLVTLVGKAGTGKTLLAVAAGLHKVADERHFSRLLVSRPIFPMGRDLGFLPGDLQEKLAPWMQPIIDNLDFILGGANNNGDRPSNKQQNYQDLMGMNLLQIEPLTYIRGRSIPRQFMIVDEAQNLTPHEIKTILTRAGEGTKIVLTGDAYQIDNPYVDASSNGLTYVVEKFKNEAIAGHITLERGERSPLAELSANLL | not soluble |
